Assay [1] has as its target T1, interleukin-1 receptor accessory protein (IL1RAP) on AML target cells (human, UniProt Q9NPH3 21-570).
T1 sequence (looked up): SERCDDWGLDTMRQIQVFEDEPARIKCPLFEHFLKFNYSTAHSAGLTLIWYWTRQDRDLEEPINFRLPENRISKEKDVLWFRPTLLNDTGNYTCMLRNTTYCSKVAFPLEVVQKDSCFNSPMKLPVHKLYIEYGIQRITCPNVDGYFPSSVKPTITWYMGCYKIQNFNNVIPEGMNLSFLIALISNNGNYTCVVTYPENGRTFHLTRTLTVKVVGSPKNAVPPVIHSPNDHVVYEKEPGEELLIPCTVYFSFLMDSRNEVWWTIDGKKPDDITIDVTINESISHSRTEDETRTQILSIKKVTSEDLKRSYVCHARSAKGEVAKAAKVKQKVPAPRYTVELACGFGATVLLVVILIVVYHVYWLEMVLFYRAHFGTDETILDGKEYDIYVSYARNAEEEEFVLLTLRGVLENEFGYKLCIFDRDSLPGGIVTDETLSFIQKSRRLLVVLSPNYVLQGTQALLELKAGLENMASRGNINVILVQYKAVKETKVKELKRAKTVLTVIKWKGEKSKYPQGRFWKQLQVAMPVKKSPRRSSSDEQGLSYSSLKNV
As to the kind of experiment: cell-based or functional assay.

The target of assay [2] is T2, interleukin-1 receptor accessory protein (IL1RAP), antigen of the ELISA and phage selection (UniProt Q9NPH3 21-367, limits assumed).
T2 sequence (looked up): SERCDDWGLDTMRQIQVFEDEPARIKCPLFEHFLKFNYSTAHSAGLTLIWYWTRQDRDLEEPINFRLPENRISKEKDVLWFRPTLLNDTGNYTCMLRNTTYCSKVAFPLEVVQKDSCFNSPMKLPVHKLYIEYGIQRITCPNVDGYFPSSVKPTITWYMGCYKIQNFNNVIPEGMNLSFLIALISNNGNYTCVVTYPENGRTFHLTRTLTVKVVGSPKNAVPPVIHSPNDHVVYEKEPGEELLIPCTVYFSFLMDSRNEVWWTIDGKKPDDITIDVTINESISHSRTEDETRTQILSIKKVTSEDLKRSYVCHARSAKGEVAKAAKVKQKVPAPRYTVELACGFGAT
Briefly: ELISA, scFv-Fc on IL1RAP.

Assay [3] deals with T2, interleukin-1 receptor accessory …. Briefly: ELISA, scFv-Fc on IL1RAP. The source holds these as a separate data set.

Read-outs that look alike come from different tables or passages of the source.

B1: anti-IL1RAP antibody clone 2E12 (Fc fusion)
VH: PGAAAGVGGGLVQPGGSLRLSCEASGFTFSRYWMHWVRQAPGKGLVWVSRIHTDGSSISYADSVKGRFTISRDNAKNTLYLQMNSLRAEDTAVYYCARDIGGGYSYGSVDYWGQGTLVTVSS
VL: QPVLTQSPSVSVAPGKTTRITCGGDNIGSKSVHWFQQKPGQAPVLVVFGGGDRPSGIPERFSGSNSGNTATLIISGVEGGDEADYYCQVWDGSTDHYIFGAGTMVTVL
notes: Tested as scFv-Fc
As for B1, in assay [1], the “cell lysis %-1” value came to 27.2%, the “cell lysis %-2” value turned out to be 28.7%, the “cell lysis %-3” value was 23.7% and the cell lysis %-average is 26.5%. For the same molecule, in assay [2], the midpoint of the response, the EC50, lay at 85.4 µg/mL. This molecule displayed an EC50 in assay [3] of 854 nM.

The term EC50 denotes the concentration needed to bring the measured effect to its halfway point.

The values above are taken from patent US20220306750A1 (CITY OF HOPE, published 2022).
